Reference: the supplement of paper PMC6757056
± gives the standard deviation of the averaged measurements.

B1: library; a variant is named by its letters at N, in order (parent)
chain: GCUGUCACCGGUGCUUGGUACGUUAUAUUCAGCCGGUCUGAUGAGUCUNNNNNNAGACGAAACAGC

Experiments:
(6R,S)-folinic acid [1] = variants of: B1; experiment: FACS-Seq fitted mean relative fluorescence mCherry/BFP without ligand (log10 relative fluorescence); HEK293T overexpressing SLC46A1; higher = higher reporter protein expression; conditions: without (6R,S)-folinic acid; ligand present: no
How it was run: (§1)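 The ribozyme switch sat in an mCherry reporter, delivered by lentivirus into HEK293T libraries along with an EF1α-BFP marker. Enriched cells were incubated 48 h with or without ligand, sorted into 6 bins by mCherry/BFP, and bin genomic DNA was PCR-amplified, barcoded and MiSeq-sequenced. Fluorescence equals the fitted normal mean of the bin counts after normalization. Those log10(mCherry/BFP) means were scaled to five spiked-in control ribozymes.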

(6R,S)-folinic acid [2] = variants of: B1; experiment: normalized RNA/DNA level without ligand (relative to sTRSVctl = 100) (log10 (% of sTRSVctl)); HEK293T overexpressing SLC46A1; higher = less ribozyme self-cleavage, higher mRNA level; conditions: without (6R,S)-folinic acid; ligand present: no
Method: (§2)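 Hammerhead (sTRSV) ribozyme switch libraries with a ligand aptamer grafted on stem I and a randomized N4-6 loop II, cloned into the 3' UTR of mCherry and transiently transfected into HEK293T cells; RNA-Seq 72 h post transfection with ligand added 1 h before transfection; RNA read count / plasmid DNA read count normalized to the non-cleaving sTRSVctl (x100), log10; sequences with >100 DNA reads. FACS-Seq: lentiviral library sorted into 6 bins after 48 h ligand, log-normal fit mean of mCherry/BFP scaled to controls. Printed sequences are partial switch sequences.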

(6R,S)-folinic acid [3] = variants of: B1; experiment: FACS-Seq fitted mean relative fluorescence mCherry/BFP with ligand (log10 relative fluorescence); HEK293T overexpressing SLC46A1; ligand concentration (+) FACS-Seq: 6 mM; higher = higher reporter protein expression; conditions: with (6R,S)-folinic acid; ligand present: yes
How it was run: as §1

(6R,S)-folinic acid [4] = variants of: B1; experiment: normalized RNA/DNA level with ligand (relative to sTRSVctl = 100) (log10 (% of sTRSVctl)); HEK293T overexpressing SLC46A1; ligand concentration (+) RNA-Seq: 6 mM; higher = less ribozyme self-cleavage, higher mRNA level; conditions: with (6R,S)-folinic acid; ligand present: yes
Method: as §2

Variant | FACS-Seq fitted mean (log10) ((6R,S)-folinic acid [1]) | normalized RNA/DNA level without ligand (log10) ((6R,S)-folinic acid [2]) | FACS-Seq fitted mean (log10) ((6R,S)-folinic acid [3]) | normalized RNA/DNA level with ligand (log10) ((6R,S)-folinic acid [4])
UCAACU | 0.46 ± 0.092 | 2.03 ± 0.0056 | 0.559 ± 0.13 | 2.04 ± 0.027
UCAACC | 0.654 ± 0.28 | 2.04 ± 0.023 | 0.606 ± 0.39 | 1.978 ± 0.017
GCAAAA | 0.327 ± 0.023 | 1.989 ± 0.0033 | 0.174 ± 0.032 | 2 ± 0.051
CCACUU | 0.0563 ± 0.03 | 1.97 ± 0.021 | -0.0467 ± 0.18 | 1.972 ± 0.007
CAUGUG | 0.241 ± 0.086 | 2 ± 0.025 | 0.351 ± 0.27 | 1.992 ± 0.011
CAUGUU | -0.0794 ± 0.016 | 2.027 ± 0.017 | -0.27 ± 0.064 | 2.04 ± 0.029
ACAAGG | 0.526 ± 0.062 | 1.913 ± 0.014 | 0.524 ± 0.13 | 2.016 ± 0.014
UAUUAC | 0.106 ± 0.011 | 1.984 ± 0.0099 | 0.38 ± 0.24 | 2 ± 0.035
UAUUAA | -0.696 ± 0.074 | 1.946 ± 0.0091 | -0.811 ± 0.25 | 1.98 ± 0.037
UAUUAG | -0.162 ± 0.24 | 1.781 ± 0.0025 | 0.0465 ± 0.094 | 1.98 ± 0.054
CCACGU | 0.714 ± 0.093 | 2.053 ± 0.0035 | 0.4025 ± 0.00094 | 2.0397 ± 0.0012
ACACAU | 0.23 ± 0.019 | 1.965 ± 0.0028 | 0.348 ± 0.25 | 2 ± 0.043
CAUUUG | 0.428 ± 0.042 | 2.05 ± 0.0064 | 0.431 ± 0.069 | 2.06 ± 0.025
CAUUUU | 0.383 ± 0.084 | 1.982 ± 0.015 | 0.284 ± 0.047 | 1.99 ± 0.043
ACAACA | 0.197 ± 0.026 | 2.032 ± 0.003 | 0.27 ± 0.24 | 2.03 ± 0.04
CCAAAA | 0.502 ± 0.074 | 1.971 ± 0.0043 | 0.496 ± 0.19 | 1.96 ± 0.022
GAUUUA | 0.4 ± 0.091 | 2.024 ± 0.019 | 0.664 ± 0.15 | 2.03 ± 0.021
UCACCG | 0.426 ± 0.13 | 1.971 ± 0.006 | 0.151 ± 0.15 | 2.01 ± 0.03
